{"source": "the nanobody polyreactivity screen of Harvey et al. (2022)", "data": [{"test": "yeast display, Sf9 membrane polyspecificity reagent, FACS + sequencing; frameworks hold sequencing errors", "procedure,_shortened": "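After 36–48 hours of galactose induction, yeast (Saccharomyces cerevisiae BJ5465) displaying a synthetic nanobody library were stained at 4 °C for 1 hour with 10% biotinylated, detergent-solubilized Sf9 membrane reagent. Streptavidin microbeads enriched the stained cells before FACS sorting into low and high (top ~1%) gates on anti-HA and streptavidin fluorescence. Each clone's polyreactivity label reflects its gate of origin.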", "values": [{"sequence": "QVQLVESGGGLVQAGGTLRLSCAASGIIFDQNAMGWYRQAPGKERELVAAISWSGGGTYYADSVKGRFTISRDNAKNTVYLQMNSLKPEDTAVSYCAVEDMSHAYVQHYRFGYGYWGQGTQVTVSS", "polyreactivity (PSR sort gate)": "low polyreactivity"}, {"sequence": "QFQLVESGGGLVQAGGSLRLSCAASGSTFIRYAMGWYRQAPGKERELVAAISRSGGNTYYADSVKGRFTISRDKAKNTVYLQMNSLKPEDTAVYYCNKDRQQALNYWGQGTQVNVSS", "polyreactivity (PSR sort gate)": "high polyreactivity"}, {"sequence": "QVQLVESGGRLVQAGGSLRLSCAASGSIFNRYAMGWYRQAPGKERELVARITNRSGNTYYADSVKGRFTISRANAKNTVYLQMNSLKPEDTAVYYCAATKSLGRYNMDYWGQGTQVTVSS", "polyreactivity (PSR sort gate)": "low polyreactivity"}, {"sequence": "QDQLVESGGGLVQAGGSLRLSSAGSGSIFFSYAMGWYRQAPGKEREFVAAINSDDASTYADSVKGRFTISRDNAKNTVYLQMNSLKPEDTAVYYCAASFLWSWYDYWGQGTQVTVSS", "polyreactivity (PSR sort gate)": "low polyreactivity"}, {"sequence": "QVQLVESGGGLVQAGGSLRLSCAASGSIFESYAMGWYRQAPGKERELVADITYDGGITYYADSVKGRFTISRDNAKNTVYLQLNSLKPEDTAVYYCAAQAWWGYYSRGPMDYWGQGTQVTVSS", "polyreactivity (PSR sort gate)": "low polyreactivity"}, {"sequence": "QVQHVESVGGLVQAGGSLPLSCDASGSIFGPNAMGWYRQAPGKESELVAAISGSGGSTYYADSVKGRFTISRDNAKNTVYLQMNSLKPEATAVYYCAADLDGTLSVYDYHTTGDDYWGQGTQVTVSS", "polyreactivity (PSR sort gate)": "low polyreactivity"}, {"sequence": "QVQLVESGGGFVQAGGSLRLSCAASGSTFYHNAMGWYRPAPGKERELVAAISSGGSTHYADSVKGRFTISRDNEKNTVYLQKNILKPEDTAVYYCAKARPGFLYDHWGQGTQVTVSS", "polyreactivity (PSR sort gate)": "high polyreactivity"}, {"sequence": "QVQLVESGGGLVQAGGSLRLSCAASGRTFTRYAMGWYRQAPGKERELVAAISRRGGRTFYADSVKGRFTISRDNAKNTVYLQMNSLKPEDTAVYYCAADYKSSPPLPEYDYWGQGTQVTVSS", "polyreactivity (PSR sort gate)": "high polyreactivity"}, {"sequence": "QVQLVESGGGLVLAGGSLRLSCAASGGIYTTYAMGWYREAPGKERELVAAISRSGGSTYYADSVKGRFTISRDNAKNTVYLQMNSLKPDDTAVYYCAADQYMCRAWRGRVYYWGQGTQVTVSS", "polyreactivity (PSR sort gate)": "high polyreactivity"}, {"sequence": "QVQLVESGGGLVQAGGSLRLSCAASGSTFIRNAMGWYRQAPGKERELVAVISSGGSTYYADSVKGRFTISRDNAKNTVYLQMNSLKPEDTAVYYCAAGDPQKEDYWGQGTQVTVSS", "polyreactivity (PSR sort gate)": "low polyreactivity"}, {"sequence": "QVQLVDSGGGLVQAGGSLRLSCAASGPIFKRYAMGWYRQAPGKERELVASITTSGDSTYYADSVKGRFTISRDNAKNTVYLQMNSLKPEDTAVYYCAGRSYSGRRYDYWGQGTQVTVSS", "polyreactivity (PSR sort gate)": "high polyreactivity"}, {"sequence": "QVQLVESGGGLVQAGGSLRVSCAASGSIFGPYAMGLYRQAPGKERELVATSTYYADSVKGRFTISRDNAKNTVYLQMHRLKPEDTAVYYCAKTPYYSGYGWGYDYWGQGTQVTVSS", "polyreactivity (PSR sort gate)": "low polyreactivity"}, {"sequence": "QVQLVESGGGLVQAGGSLRLSCAASGNIFLYYAMGWYRQAPGKEMELVAAISWSGSSTYYADSVKGRFTISRDNAKNTVYLQMNSLKPEDTAVYYCNKRATRSRRRGYWGQGTQVTVSS", "polyreactivity (PSR sort gate)": "low polyreactivity"}, {"sequence": "QVQLVESGGGLVQAGGSLRLSCAASGFTFRYYAMGWYRQAPGKERELVASTYYADYVKGRFTISRDNAKNTVYLQMNSLKPEDTAVYYCNVDGTSSSPFVQKHKEMDYWGQGTQVTVSS", "polyreactivity (PSR sort gate)": "low polyreactivity"}, {"sequence": "QVQLVESGGGLVQAGGSLRLSCAASGATFRIDAMGWYREAPGKERELVAAIARGGTSTYYADSVKGRFTISRDNAKNTVNLQMNSLKPEDTAVYYCAKRDQDRTFPNGYWGQGTKVTVSS", "polyreactivity (PSR sort gate)": "high polyreactivity"}, {"sequence": "QVQLQQSGDGLVQAVGSLRLSCAPSGSLSGYYSMGWYREAPGKVRELVAGIDAFGSSTNYADCVIGRFTISRDKATNTVYLQMKSLKPEDTAVYYCAARPDGVRLFSYWGQGTQVTESS", "polyreactivity (PSR sort gate)": "low polyreactivity"}, {"sequence": "QVQLVESGGGLVQAGGRLRLSCAASGFTFRAFTMGWYRQAPGKERELVAAITYSGGRTYYADSVKGRFTISRDNAKNTVYLQMNSLKPEDTAVYYCAKRGWALSEYYYWGQGTQVTVSS", "polyreactivity (PSR sort gate)": "high polyreactivity"}, {"sequence": "QVQLVESGGGLVQAGGSLRLSCAASGSIFYYYVMGWYRQAPGKERELVAAISSGGGTNYADSVKGRFTISRDNAKNTVYLQMNSLKPEDTAVYYCANASAYGLANDYDYWGQGTQVTVSS", "polyreactivity (PSR sort gate)": "low polyreactivity"}, {"sequence": "QVQLVESGGGLVQAGGSLRLSCAASGNTFGYYAMGWYRQAPGKERELVAAITSSGGRTYYADSVKGRFTISRDNAKNTVYLQMNSLKPEDTAVYYCAAGRVGARYPTYRFYYWGQGTQVTVSS", "polyreactivity (PSR sort gate)": "high polyreactivity"}, {"sequence": "QVQLVESGGGLVQAGGSLRLSCAASGFTFGFYAMGRYRQAPGKERELVARISYSGGSTYYADSVKGRFTISRDKAKNTVYLQMNSLKPEDTAVYYCNRGYRRLQEDYWGQGTQVTVSS", "polyreactivity (PSR sort gate)": "high polyreactivity"}, {"sequence": "QVQLVESGGGLVQAGGSLRLSCAASGRTFYYYAMGWYRQAPGKERELVASISWSGGSTYYADSVKGRFTISRDNAKNTVYLQMNSLKPEDTAVYYCNAQYHTYRWLYAVYLSGDYWGQGTQVTVSS", "polyreactivity (PSR sort gate)": "low polyreactivity"}, {"sequence": "QVQLVESGGGLVQAGGSLRLSCAASGRTFYAYAMGWYRQAPGKERELVAAITSGASTYYADSVKGRFTISRDNAKNTVYLQMNRLKPEDTAVYYCAKRVRYYKPGYDYWGQGTQVTVSS", "polyreactivity (PSR sort gate)": "low polyreactivity"}, {"sequence": "QVQLVESGGGLVQAGGSLRLSLLPPDSPSTTMLWDGIDRRLGKKGSWLPVFLPSGGTTYADSVKGRFTISRDNAKNTVYLQMNSLKPEDTAVYYCAASYYRTRWSWMYYWGQGTQVTVSS", "polyreactivity (PSR sort gate)": "low polyreactivity"}, {"sequence": "QVQLVDSGGGLVQAGGSLRLICAASGRTFYYYAMGWYRQAPGKERELVAGISSGVSTTYADSVKGRFTISRDNAKNTVYLQLNSLKPEDTAFYYCAARWRPNRAYIGYDYWGQGTQVTVSS", "polyreactivity (PSR sort gate)": "low polyreactivity"}, {"sequence": "QVQLVDSGGGLVQAGGSLRLSCAASGNTFIYYAMGWYRQAPGKERELVAAITWSGGSTYYADSVKGRFTISRDNAKNTVYLQMNSLKPEDTAVYYCAKFTHNYYYWGQGTQVTVSS", "polyreactivity (PSR sort gate)": "high polyreactivity"}, {"sequence": "QVQLVESGGGLVQAGGSLRLSCAASGSIFLRYAMGWYRQAPGKERELVAAISGRGGSTYYADSVKGRFTISRDNAKNTVYLQMNSLKPEDTAVYYCAAYRGRSLEYDYWGQGTQVTVSS", "polyreactivity (PSR sort gate)": "high polyreactivity"}, {"sequence": "QVQLVESGGGLVQAGGSLRLSCAASGSTLFAYAMGWYRQAPGKERELVAAITSGASTNYADSVKGRFTISRDNAKNTVYLQMNSLKPEDTAVYYCAKDVSGTNPDYDYWGQGTQVTVSS", "polyreactivity (PSR sort gate)": "low polyreactivity"}, {"sequence": "QVQLVESGGGLVHAGGSLSLSCAASGYTFPLYAMGRYRQAPGKERELVADNNIGGASTYYADSVKGRFTISRDNAKNTVYLQMNSLKPEDTAVYYCAKEDYDGYFPTFDYDYWGQGTQVTVSS", "polyreactivity (PSR sort gate)": "low polyreactivity"}, {"sequence": "QVQLVESGGGLVQAGGSLRLSCAASGRTFTRNAMGWYRQAPGKERELVAAITGRGGSTYYADSVKGRFTISRDNAKNTVYLQMNSLKPEDTAVYYCARFYRYSRDYWGQGTQVTVSS", "polyreactivity (PSR sort gate)": "high polyreactivity"}, {"sequence": "QVQLVESGGGLVQAGGSLRLICAASGRTFDRYDMGWYRPAPGKERALVATISSSGGSTYYADSVKGRFTISRDNAKNTVYLQMNSLKPEDTAVYYCAADPSGYYWGQGSQVTVSS", "polyreactivity (PSR sort gate)": "low polyreactivity"}, {"sequence": "QVHLVESGGGLFQAGGSLSISSASSGRTFYWYPMGWYRQAPGKERELVAAITGMGTRTYYADSVKGRFTISRDNAKNTDYLQMNSLKPEDTAVYYCNTRYYGGFDSWGQGTQVTVSS", "polyreactivity (PSR sort gate)": "high polyreactivity"}, {"sequence": "QVQLVESGGGLVQAGGSLRLSCAASGSIFDLYDMGWYRQAPGKERELVAAISLIGGSTSYADSVKGRFTISRDNAKNTVYLQMNSLKPEDTAVYYCAVEKFFRAEYDHWGQGTQVTVSS", "polyreactivity (PSR sort gate)": "low polyreactivity"}, {"sequence": "QVQLVESGGGLVQAGGSLRLSCAASGLTFDWYTMGWYRQAPGKERELVATINSGGSTDYADSVKGRFTISRDNAKNNVYLQMNSLKPEDTAVYYCNAEYGYSGVGDDYWGQGTQVTVSS", "polyreactivity (PSR sort gate)": "low polyreactivity"}, {"sequence": "QVQLVESGGGLVHAGGSLRLSCAASGSTLSYAMGWYRQAPGKERELVAAISRSGGSTYYADSVKGRFTISRDNAKNTVYLQMNSLKPEDTAVYYCAADPYPSYANGGYYWGQGTQVTVSS", "polyreactivity (PSR sort gate)": "high polyreactivity"}, {"sequence": "QDQLVESGGGLVQAGGSLRLSCAASGVTFVTYAMGGSRQAPGKERELVAAITTGGSTNYADSVKGRFTISRDNAKNTVYLQMNSLKPEDTAVYYCAAQRVSVLLFVRHDYWGQGTQVTVSS", "polyreactivity (PSR sort gate)": "low polyreactivity"}, {"sequence": "QVQLVESGGGLVQAGGSLRLSCAASGYTFPLYAMGWYRQAPGQERELVADINIGGASTYYADSVKGRFTISRDNAKNTVYLQMNSLKPEDTAVYYSAKEYYDGYFPTFDYDYWGQGTQVTVSS", "polyreactivity (PSR sort gate)": "low polyreactivity"}, {"sequence": "QVQLVESGGGLVQAGGSLRLSCAASGRIFKGNGMGWYRQAPGKERELVAAISRSGGNTYYADSVKGRFTISRDNAKNTVYLQMNSLKPEDTAVYYCNVRYYTYRFLRFDYWGQGTQVTVSS", "polyreactivity (PSR sort gate)": "high polyreactivity"}, {"sequence": "QVQLVESGGGVVQAGGSLRLSCAASGSTFYINTMGWSRPAPGKDRELVAAISWTGGRTYYAASVKGRFTISRANAKNTVYLQMNSLKPEDTAVYYCAAYYNIPDRRRVGYDYWGQGTQVTVSS", "polyreactivity (PSR sort gate)": "high polyreactivity"}, {"sequence": "QVQLVESGGGLVQAGGSLRLSCAASGFTFPIYAMGWYRQAPGKEREFVAAITRSGVSTYYADSVKGRFTISRDNAKNTVYLQMNSLKPEDTAVYYCAARYKGRAFWMDYWGQGTQVTVSS", "polyreactivity (PSR sort gate)": "high polyreactivity"}, {"sequence": "QVQLVESGGGLVQAGGSLRLSCAASGGIFWYYTRGWYRQAPGKERELVATISSGGRTYYADSVKGRFTISRDNAKNTVYLQMNSLKPEDTAVYYCAKSYRRRQGYSYWGQGTQVTVSS", "polyreactivity (PSR sort gate)": "high polyreactivity"}, {"sequence": "QVQLVESGGGLVQAGGSLRLSCAASGSIFFQYAMGWYRQAPGKERELVAAISTGGSTNYADSVKGRFTISRDNAKNTVYLQMNSLKPEETAVYYCAAYSRYKGYQYDYWGQGTQVTVSS", "polyreactivity (PSR sort gate)": "low polyreactivity"}, {"sequence": "QVQLVESGGGLVQAGGSLRLICAASGRTFPYNTMGWYRQAPGKERELVAGISIRGSSTYYADSVKGRFTISRDNAKNTVYLQMNSLKPEDTAVYYCAKRYYGWYGNFDYWGQGTQVTVSS", "polyreactivity (PSR sort gate)": "high polyreactivity"}, {"sequence": "QVQLVESGGGLVQAGGSLRLSCAASGITFSRYAMGWYRQAPGKERELVATITFSGTSTFYADSVKGRFTISRDNAKNTVYLQMNSLKPEDTAVYYCARLRFGSWSTYYYWGQGTQVTVSS", "polyreactivity (PSR sort gate)": "low polyreactivity"}]}]}
